From the nanobody polyreactivity screen of Harvey et al. (2022)

assay: yeast display, Sf9 membrane polyspecificity reagent, FACS + sequencing; frameworks hold sequencing errors
Outline: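 A nanobody's polyreactivity label depends on the gate it was sorted from. Yeast display cells were stained with 10% biotinylated, detergent-solubilized Sf9 membrane reagent for 1 hour at 4 °C, enriched on streptavidin microbeads and sorted by FACS. The low and high (top ~1%) gates were set on anti-HA fluorescence for expression and streptavidin fluorescence for reagent binding.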

Sequence | polyreactivity (PSR sort gate)
QVQLVESGGGLVQAGGSLRLSCAASGSTFKGNAMGWYRQAPGKERELVAAINRSGTSTYYADSVKGRFTISRDNAKNTVYLQMNSLKPEDTAVYYCAADKAPYSTEGDSWGQGTQVTVSS | high polyreactivity
QVQLVESGGGLVQAGGSLRLSCAASGSTFKIYAMGWYRQAPGKERELVARITGRGGSTYYADSVKGRFTISRDNAKNTVYLQMNSLKPEDTAVYYCAARVYTYYYDLHKRYYWGQGTQVTVSS | high polyreactivity
QVQLVESGGGLVQAGGSLRLSCAASGSTFKKYAMGWYRQAPGKERELVAAITGSGGRTYYADSVKGRFTISRDTAKNTVYLQMNSLKPEDTAVYYCANLNNYGYDYWGQGTQVTVSS | high polyreactivity
QVQLVESGGGLVQAGGSLRLSCAASGSTFKNNAMGWYRQATGKEREFVAGITRRGTSTYYADSVKGRFTISRDNAKNTVYLQMNSLKPEDTAVYYCAVGVYDYTGTYGYWGQGTQVTVSS | high polyreactivity
QVQLVESGGGLVQAGGSLRLSCAASGSTFKPNAMGWSRQAPGKERELVAAINGSGGDTYYADSVKGRFTISRDYANNTFYLQMNSLKPEDTAVYYCAAQWGYYNYWYGYWGQGTQVTVSS | low polyreactivity
QVQLVESGGGLVQAGGSLRLSCAASGSTFKPNAMGWYRQAPGKERELVAAITSGSTYYADSVKGRFTISRDNAKNTVYLQMNSLKPEDTAVYYCAVVTGSFRTRYTYYYWGQGTQVTVSS | high polyreactivity
QVQLVESGGGLVQAGGSLRLSCAASGSTFKPYTMGWYRPAPGKERELVAAISSVDSTYYADSVKGRFTISRDNAKKTVYLQMNSLKPEDTAVYDCNKRKSPTFTYAMNYWGQGTQGTVSS | low polyreactivity
QVQLVESGGGLVQAGGSLRLSCAASGSTFKRYAMGWYRQAPGKERALVASISSGGSTNYADSVKGRFTISRDNAKNTVYLQMHSLKPEDTAVYYCAVSYRSFRYYWERYYSWGQGTQVTVSS | high polyreactivity
QVQLVESGGGLVQAGGSLRLSCAASGSTFKRYTMGWYRQAPGKERELVARISWGGSTTYYAYSVKGRFTISRDNAKNTVYLQMNSLKPEDTAVYYCAASWSWYGNRGTYRYPPRYDYWGQGTQVTVSS | high polyreactivity
QVQLVESGGGLVQAGGSLRLSCAASGSTFKSYAMGWYRQAPGKERELVAAITHRGSTYYADSVKGRFTISRDNAKNTVYLQMNSLKPEDTAVYYCNVRRIGNGRRVDYWGQGTQVTVSS | high polyreactivity
QVQLVESGGGLVQAGGSLRLSCAASGSTFKTYVMGWYRQAPGKERELVAGISDSGGTTYYADSVKGRFTISRDNAKNTVYLQMNSLKPEDTAGYYCAAVLYRRYTRARLDYWGQGTQVTVSS | high polyreactivity
QVQLVESGGGLVQAGGSLRLSCAASGSTFKVNAMGWYRQAAGKEREFVAAITKNGGRTYYADSVKGRFTISRDYAKNTVYLQMNSLKPEDTAVYYCAARLYLPIIVVDLYGYDYWGQGTQVTVSS | low polyreactivity
QVQLVESGGGLVQAGGSLRLSCAASGSTFKVNAMGWYRQAPGKERELVAAISRGGSTYADSVKGRFTISRDNAKNTVYLQMNSLKPEDTAVYYCAAKSRYFQPDEYYYWGQVTQVTVSS | high polyreactivity
QVQLVESGGGLVQAGGSLRLSCAASGSTFKVNVMGCYRKAPVKERELVAAINQSVRGTYYADSVKGRFTISRDNAKNTVYLQMNSLKPEDTAVYYCAAKIIVLRYVLSQEQRRYNYWGQGTQVTVSS | low polyreactivity
QVQLVESGGGLVQAGGSLRLSCAASGSTFKVYAIGWYRQAPGKERELVAGISSGGNTNYADSVKGRFTISRDNAKNTVYLQMNSLKPEDTAVYYCNTDWYLPRYVLLGYFSGTEDYWGQGTQVTVSS | low polyreactivity
QVQLVESGGGLVQAGGSLRLSCAASGSTFKVYAMGWYRQAPGKERELVAAISRSGGRTYYADSVKGRFTISRDNEKNTVYLQMNSLKPEDTAVYYCNSDYTYSQGHYSGSYDYWGQGSQVTVSS | high polyreactivity
QVQLVESGGGLVQAGGSLRLSCAASGSTFKVYTMGWYRPAPGKERELVAAISGGGGSTYYADSVKGRFTISRDNAKNTVYLQMNSLNPEDTAVYYCAAQKRGPGYPYYYWGQGTQVTVSS | high polyreactivity
